Results as given in US20120135916A1 (SIEMENS HEALTHCARE DIAGNOSTICS, published 2012).
Bridge positions count the residues as written; N and C are the ends. Ends that are not written are not given here. I, II: the chains in the order shown.

B1: R2 CTF25 (peptide)
peptide: HFHGVSNLQEFRFMIGGGCSEEDAL
B2: R1 CTF32 R1 CTF32 homodimer (peptide)
peptide: VVAAAFVHFYGVSNLQEFRYGLEGGCTDDTLL
modifications: also: homodimer: inter-chain disulfide between Cys26 of both mer units
B3: R1 CTF32 (peptide)
peptide: B2 peptide
B4: R1 CTF25 R2 CTF25 heterodimer (peptide)
peptide 1: HFYGVSNLQEFRYGLEGGCTDDTLL
peptide 2: HFHGVSNLQEFRFMIGGGCSEEDAL
modifications: disulfide I:19-II:19
B5: R1 CTF25 (peptide)
peptide: HFYGVSNLQEFRYGLEGGCTDDTLL
B6: R2 CTF32 (peptide)
peptide: VVAGAFVHFHGVSNLQEFRFMIGGGCSEEDAL
B7: R1 CTF32 R2 CTF32 heterodimer (peptide)
peptide 1: B2 peptide
peptide 2: B6 peptide
modifications: disulfide I:26-II:26
B8: R2 CTF32 R2 CTF32 homodimer (peptide)
peptide: B6 peptide
modifications: also: homodimer: inter-chain disulfide between Cys26 of both mer units

biological target: insulin degradation enzyme (IDE) (UniProt P14735 42-1019, limits assumed); experiment: cell-based or functional assay

| Binder | IDE Inhibition (90% inhibition at) |
| --- | --- |
| B1 | 9 µg/mL |
| B2 | 22.5 µg/mL |
| B3 | 50 µg/mL |
| B4 | 0.6 µg/mL |
| B5 | 12.4 µg/mL |
| B6 | 40 µg/mL |
| B7 | 1.2 µg/mL |
| B8 | 19 µg/mL |
